Experimental data published in PMC6940849, “Structure-Based Redesign of a Self-Sufficient Flavin-Containing Monooxygenase towards Indigo Production” (International Journal of Molecular Sciences, 2019).
Positions count from the first letter of the chain named. Names may count otherwise.

Substrate: c1ccc2[nH]ccc2c1
Test: purified protein
Format: biochemical, Methylophaga thalassica
Conditions: NADPH, indole up to 1.6 mM
[1] = listed as printed as WT, table title says *mFMO

B1: *mFMO (PTDH-*mFMO; mFMO M15L/S23A) (Methylophaga thalassica; M15L/S23A/W319A) (protein)
chain: MATRIAILGAGPSGLAQLRAFQAAQEKGAEIPELVCFEKQADWGGQWNYTWRTGLDENGEPVHSSMYRYLWSNGPKECLEFADYTFDEHFGKPIASYPPREVLWDYIKGRVEKAGVRKYIRFNTAVRHVEFNEDSQTFTVTVQDHTTDTIYSEEFDYVVCCTGHFSTPYVPEFEGFEKFGGRILHAHDFRDALEFKDKTVLLVGSSYSAEDIGSQCYKYGAKKLISCYRTAPMGYKWPENWDERPNLVRVDTENAYFADGSSEKVDAIILCTGYIHHFPFLNDDLRLVTNNRLWPLNLYKGVVWEDNPKFFYIGMQDQAYSFNMFDAQAWYARDVIMGRLPLPSKEEMKADSMAWREKELTLVTAEEMYTYQGDYIQNLIDMTDYPSFDIPATNKTFLEWKHHKKENIMTFRDHSYRSLMTGTMAPKHHTPWIDALDDSLEAYLSDKSEIPVAKEA
notes: N-terminal fusion to phosphite dehydrogenase (PTDH, cofactor regeneration; pCRE3-mFMO), Ni-Sepharose purified from E. coli NEB10beta
Q: B1 was tested. Which Km did it give?
A: 900 µM

Q: And the kcat?
A: 0.42 s⁻¹

B2: *mFMO (PTDH-*mFMO; mFMO M15L/S23A) (Methylophaga thalassica; C78L/M15L/S23A) (protein)
chain: B1 chain with C78L, A319W
notes: as for B1
Q: For B2, which Km is on record?
A: 800 µM

Q: What about the kcat of the same protein?
A: 0.7 s⁻¹

B3: *mFMO (PTDH-*mFMO; mFMO M15L/S23A) (Methylophaga thalassica; M15L/S23A/Y207W) (protein)
chain: B1 chain with Y207W, A319W
notes: as for B1
Q: Which Km does the source give for B3 here?
A: 100 µM

Q: What about the kcat of the same protein?
A: 0.31 s⁻¹

B4: *mFMO (PTDH-*mFMO; mFMO M15L/S23A) (Methylophaga thalassica; M15L/S23A/W319A/Y207W) (protein)
chain: B1 chain with Y207W
notes: as for B1
Q: With B4 as the protein, how does the Km read?
A: 800 µM

Q: And the kcat?
A: 0.8 s⁻¹

B5: *mFMO (PTDH-*mFMO; mFMO M15L/S23A) (Methylophaga thalassica; C78I/M15L/S23A) (protein)
chain: B1 chain with C78I, A319W
notes: as for B1
Q: What does the source list for B5?
A: Km: 800 µM; kcat: 1.28 s⁻¹

B6: *mFMO (PTDH-*mFMO; mFMO M15L/S23A) (Methylophaga thalassica; C78V/M15L/S23A) (protein)
chain: B1 chain with C78V, A319W
notes: as for B1
Q: What does the source list for B6?
A: Km: 700 µM; kcat: 1.04 s⁻¹

B7: *mFMO (PTDH-*mFMO; mFMO M15L/S23A) (Methylophaga thalassica; C78A/M15L/S23A) (protein)
chain: B1 chain with C78A, A319W
notes: as for B1
Q: What does the source list for B7?
A: Km: 400 µM; kcat: 0.79 s⁻¹

B8: *mFMO (PTDH-*mFMO; mFMO M15L/S23A) (Methylophaga thalassica; C78I/M15L/S23A/W319A/Y207W) (protein)
chain: B1 chain with C78I, Y207W
notes: as for B1
Q: What does the source list for B8?
A: Km: 800 µM; kcat: 0.93 s⁻¹

B9: *mFMO (PTDH-*mFMO; mFMO M15L/S23A) (Methylophaga thalassica; M15L/S23A/W319F) (protein)
chain: B1 chain with A319F
notes: as for B1
Q: For B9, which Km is on record?
A: 400 µM

Q: And the kcat?
A: 0.64 s⁻¹

B10: *mFMO (PTDH-*mFMO; mFMO M15L/S23A) (Methylophaga thalassica; M15L/S23A) (protein)
chain: B1 chain with A319W
notes: as for B1
Q: Which results are given for B10?
A: Km [1]: 400 µM; kcat [1]: 0.85 s⁻¹
